Results published in a protein production outcome set (Wang et al. 2014).

Assay: label from the status in PepcDB records

Sequence	protein production
MKGRWVKYLLMGTVVAMLAACSSKPTDRGQQYKDGKFTQPFSLVNQPDAVGAPINAGDFAEQINHIRNSSPRLYGNQSNVYNAVQEWLRAGGDTRNMRQFGIDAWQMEGADNYGNVQFTGYYTPVIQARHTRQGEFQYPIYRMPPKRGRLPSRAEIYAGALSDKYILAYSNSLMDNFIMDVQGSGYIDFGDGSPLNFFSYAGKNGHAYRSIGKVLIDRGEVKKEDMSMQAIRHWGETHSEAEVRELLEQNPSFVFFKPQSFAPVKGASAVPLVGRASVASDRSIIPPGTTLLAEVPLLDNNGKFNGQYELRLMVALDVGGAIKGQHFDIYQGIGPEAGHRAGWYNHYGRVWVLKTAPGAGNVFSG	not failed
MKGWKRNLYILVVCQFLVVSAMTMIIPFLPLYLQELGVTDPSEVSLWAGIIFAANFLTAFLFSPLWSRLADRYGRKMMILRSGFGMALIIGLTGFAQGPLSLLCLRLLNGVISGFIPASIGLVATNTPKEKAGYALGFLQAGAVSGGICGPLIGGIMAQAFGYRMIFFLTGLCIFIAALVVLLFVNEQFTPNPKEEKTNTWGEFKKITAIRPIFSLYVVVFLIQFAVMGVNPLISLFVEELVSGVNVALFAGLAISATGFANMLSSMQLGKLSDKAGAHHVLFFCLLGTVIFMIPQAFVQQLWQLIVLRFFVGLSLGGLLPAANALVRMHAPKGMESRTYGFSTSALYLGNMVGPTVGGAVVATVGIRGLFLISAFTLLLTVWIVKGKVMPASDKQFRYEQNERKIASS	failed
MKHAKQIAEHATIQSFLNCYLRETGSGEWITEDKRIEDIFYHLFQRDTCSTYLCCRLSAQNITLYGEVIYKSPTDRHLFGEQFYYQMGDSNSVMKADYVTVITFLIKEMSINYGEGTNPAELMLRVIRSCQNIEEFTKERKEDTSALYGFHTSFIEAEQSLLFGHLTHPTPKSRQGILEWKSAMYSPELKGECQLHYFRAHKSIVNEKSLLLDSTTVILKEELRNDEMVSKEFISKYCNEDEYSLLPIHPLQAEWLLHQPYVQDWIEQGVLEYIGPTGKCYMATSSLRTLYHPDAKYMLKFSFPVKVTNSMRINKLKELESGLEGKAMLNTAIGEVLEKFPGFDFICDPAFITLNYGTQESGFEVIIRENPFYSEHADDATLIAGLVQDAIPGERTRLSNIIHRLADLESRSCEEVSLEWFRRYMNISLKPMVWMYLQYGVALEAHQQNSVVQLKDGYPVKYYFRDNQGFYFCNSMKEMLNNELAGIGERTGNLYDDYIVDERFRYYLIFNHMFGLINGFGTAGLIREEILLTELRTVLESFLPYNREPSTFLRELLEEDKLACKANLLTRFFDVDELSNPLEQAIYVQVQNPLVREVAVRS	failed
MKHAQKYRYFSLLMGLVLLLSACQIGATTKDDNQAATKEATVELNRTTTPTLFFHGYAGTKNSFGSLLHRLEKQGATTQELVLLVKPDGTVVKERGALSGKATNPSVQVLFEDNKNNEWNQTEWIKNTLLYLQKNYQVNKANIVGHSMGGVSGLRYLGTYGQDTSLPKIEKFVSIGAPFNDFIDTSQQQTIETELENGPTEKSSRYLDYQEMINVVPEKLPILLIGGQLSPTDLSDGTVPLSSALAVNALLRQRGTQVTSQIIKGENAQHSQLHENPEVDQLLIEFLWPSKK	failed
MKHLNIYIMLLGFSIFTGATFNLAKYTVGYFSPSSSAAWRFGLAAAVMLIILIFTEGIKKSQLRKNAVSYIVLGIIGIFGFNALFFVGLKYTSPVNGALIMGLNPLLTAILARIILKDNMTKKQVLGIFFAFIGVLLVITQGSIETIKTLSISGGDLIIFTGNVCWALYGVLGRRFVKDGTPLSTTTYTMVIGAVSLIVVSLFTSKPVSLSNIPIGVWGAIAFMAFFTSVLGYLWWNQGIKEIGASKTSLFFNLVPVVTMIISFAVGTPIKVFQVIGAVLVILGVLTASGVIRIPKYNTKEQSAI	failed
MKHLVICIALLTVGACCFAQQKKVASHKAASGNPVFQGWYADPEGIIYDDTYWIFPTWSDLYENQTFFDCFSSKDLVNWTKHASVLDTTAVKWAKKAMWAPSVIRKNGKYYIFFGANDVHEGEIGGIGVAVSDRPEGPYKDLLGKPLINEIVNGAQPIDQFVYNDNGHYYMYYGGWGHCNVVQLNDDFTGLVPFEDGTVYKEVTPENYVEGPFMFKKDGKYYFMWSEGGWGGPDYSVAYAISDSPFGPFKRVAKILQQDPSVATSAGHHSLLHAPGTDDYYIVYHRRPLNDNARDHRVTCIDKMTFDKDGFINPVKMTFEGVPAQKIKKSKKK	failed
MKHYEVEILDAKTREKLCFLDKVEPHATIAEIKNLFTKTHPQWYPARQSLRLDPKGKSLKDEDVLQKLPVGTTATLYFRDL	not failed
MKIAIIRKIPTRPEQISRPSHSARAGPETHCSMPCGFAASRKAGRIAVKETIKEIVMGMLVEGVWKDVWYDTKETKGHFKRSASQFRNWVTVDGAVGPSGEGGFEAEKDRYHLYVSFACPWAHRTLIFRKLKKLEDLISVSVVDPLMLENGWEFKPEGERTPGATQDHLFGSSTLWQVYTKADPTYSGRVTVPVLWDKKRGTIVSNESAEIIRMFNVAFNDLTGSDADYYPKALRAEIDALNDVIYDTVNNGVYKAGFATTQDAYQQNAVKVFETLDMLEDRLKDRRFLFGSEQTEADWRLFTTLVRFDPVYVGHFKCNIRRIHDYPHLTGYLRDLYQTPGVPDTVDMRHIKEHYYRSHRTINPTGIVPIGPELDLTMAHGREALS	failed
MKIAILYREEREKEGEFLKEKISKEHEVIEFGEANAPGRVTADLIVVVGGDGTVLKAAKKAADGTPMVGFKAGRLGFLTSYTLDEIDRFLEDLRNWNFREETRWFIQIESELGNHLALNDVTLERDLSGKMVEIEVEVEHHSSMWFFADGVVISTPTGSTAYSLSIGGPIIFPECEVLEISPIAPQFFLTRSVVIPSNFKVVVESQRDINMLVDGVLTGKTKRIEVKKSRRYVRILRPPEYDYVTVIRDKLGYGRRIE	not failed
MKIAIVGSGNGAVTAAVDMVDKGHDVRLYCRNESISKFDVALEKGGFDFYNEGEEKFIEFTDISDDMEYVLDGADIVQVIIPSSFIEYYAKVMSKFVTNDHLIFFNIAASMGSIRFMNVLEDRHIDVHPHFAEANTLTYGTRVDFNNAKVDLSLNVRRVFFSTFDRSELNESYEKVSKIYDYLVKEESLLKTNL	failed
MKIALINENSQASKNHIIYDSLKEATDKKGYQLFNYGMRGEEGESQLTYVQNGLMAAILLNTKAVDFVVTGCGTGVGAMLALNSFPGVVCGLAVDPTDAYLYSQINGGNALSIPYAKGFGWGAELTLKLMFERLFAEEMGGGYPRERVIPEQRNARILNEVKQITHNDLMTILKIIDQDFLKDTISGKYFQEYFFENCQDDEVAAYLKEVLA	failed
MKIATTSSAFDLLPKDQKYKTKRVSYNDFSDLSFLPVVNPKIKRQKKTLEEEVDSTSKAKSSRTSLTKSVTTTTKLTKPEETITASSKECLQETKTNKKPDLRDLIAKAQEKIQNKREINHRREYITRQRIAARLALNQMVATVSFDDHLNYHREMEQRGYTFIQDQVDNLNMFSLWSRSDYNGITNSVLETSNTTMRSDEDSSRKKQQIIKKKSNTFPTDVKEH	failed
MKIATYNVRVDTEYDQDWQWSFRKEAVCQLINFHDWSLCCIQEVRPNQVRDLKAYTTFTCLSAEREGDGQGEGLAILYNEQKVQAIDTGYFWLSETPQQPSIHPEAGCPRIALWGLFKETTQNTPFLVINVHLDHISAHARLAGMTVILEELHDKIAQYPTLLMGDFNAESGEEVHQLVQKKFQDSKNLATHYGPRGTFQNFTYTKPWAELEEIDYIYVKGWQVQQTASLTDSIDGRFPSDHFPLEAEVCIEE	failed
MKIAVVGGTGLVGQGILLELSKDTTLELHSISRNGKRPNSIAGVNYHSFDLAHDTSWHSLLQTSDWVIDCVGILLPNKSKNQTYENSSIEPAKLIIDSIANFDNKFLFISANSAPFFLNNYLHAKRTVENYASRKLGNRAISVYPGLVYSKFRRSNYYPAVILDFLLKFKLFSFLRKFRPISRERFAKEIHYIIEGKNSSLTYRI	failed
MKIEHVALWTTNLEQMKQFYVTYFGATANDLYENKTKGFNSYFLSFEDGARLEIMSRTDVTGKTTGENLGWAHIAISTGTKEAVDELTEKLRQDGFAIAGEPRMTGDGYYESVVLDPEGNRIEITW	not failed
MKIFKKSDISGIFHELGILISTIGFIMLLPSFIGIYFHEPFFYFLFPSLFFMILGLLINKITKPISVKLKHAMVISALAWLMASLIGAIPFYIGIEYFSYLDGVFESMSAWTTTGFSIVGDVESLPRTLQFWRSFEQWIGGVGVLAMVITILSKAGASAYYRAEAREEKIMPSTIGTIKKIWQIYLLYTTIGICLLYLSGLNLWSALNICMCGISTGGMSISNQSFPFNNFAKIIMTLIMYIGGVVSFSVHHNVLTGRRVDDIQTKTSIPILFFAAFVITLTSGIDPLDSLFTVVSAMTSTGFSSVQISSLTNISIAVLIFVMAIGGATGTTTGGIKLIRLVIMAKGFYYRLKEVVSPGNAIIYKKIGKNQLSDFLILDAFIIAFAYIIHYLFGTLVLISLGYDPFLSVFESVSLVANMGLSVDIVNHSLHPIAKILGVFSMWVGRLEIIPIYVLIILPLYLKLKDVGKNKISKNRKL	failed
MKIGIVIPAHNEEQHLSACLQSIQQAIQHTGHEQVEILVVLDSCTDQSRSVVESHQVNWIECNFACVGKARDLGIRQLIDQGVIWVACTDADTIVDSDWILCQMLHQPTDAICGVVTLDDLSHLSVQQQQKYLAHYQDSMDHQHIHGANLSFSAEAYIQAGGFEPIPCHEDVSLIEKFIKQCCKVTRSNLVRVTTSSRLNGRAPEGLSYFLKHL	failed
MKIINIGVLAHVDAGKTTLTESLLYTSGAIAESGSVDTGTTRTDTTFLERQRGITIQTAVTSFQWKDIKVNIIDTPGHMDFLAEVYRSLSVLDGAILLISARDGVQAQTRILFHALNKMGIPTIFFINKIDQNGIDLSTVYQDIKEKLSMEIIIKQKVELHPNMCVMSCTEPEQWDVVIEGNDYLLEKYTLGKSLEILELEQEEIRRFQNCSLYPVYHGSAKSNIGIEQLIEVITNKFYSSTYRKKSELCGNVFKIEYSEERQRLAYVRLYGGILHLRDSVRISEKEKIKITEMYTSINGELCKIDKAYSGEIVILQNEFLKLNSVLGDTKLLPQRERIENPLPLLQTTVEPSKPQQREMLLDALLEISDSDPLLQYYVDSTTHEIILSFLGKVQMEVTCALLQEKYHVEVKIKKPTVIYMERPLKKAEYTIHIEVPPNPFWASIGLSVAPLPLGSGVQYESSVSLGYLNQSFQNAVMEGIRYGCEQGLYGWNVTDCKICFKYGLYYSPVSTPADFRMLAPIVLEQVLKKAGTELLEPYLSFKIYAPQEYLSRAYNDAPKYCANIVDTQLKNNEVILSGEIPARCIQEYRNDLTFFTNGRSVCLTELKGYYVTTGESVCQPRRPNSRIDKVRYMFNKIT	failed
MKIITIEEHFESEVITNEINKVTGNLVSGQVSPEMFQYMQKELPSAMEMQDTEKRLAFMDQHGIDMQVLSYGNSSPQNLGPKISVALCKRANDELAKVIQQNPTRFAGFAVLPVGSPEDAAIELKRAVEELGFKGALVKGQFENKYFDNSFYYPIFEMAEKLDVPISFHPSFIPEPITEQYFASDAWSDVVTGVFSSAGFGWHMDVGIQVVRMILSGIFDKLPNLKIITGHLGEMVPMFLNRMDDTLGHWTTLERKISDYYRTNVYVTPSGLLYKNEWKFLLNELDENHLIYALDYPFVKTENAGTFLDTLDLTDEVKAKIAHENAEKLLHL	not failed
MKILNIFDAVRDGTFQDFKNFYEGNINVISGNLDLNLLCMAVTNDKNPEEKLQIIKFLFAEGIDVNYATQKEKRNALHLFYFCVLRPTIEYEMEITNLFIKHGVNVNATDKYNAIPLKYAITINNLPTSDNKEMYQLLLNKGSDYNLKDGFGKSCLDYAKEYSWRNDFLDIVKEYENSKK	failed
